Data on eight molecules can be found in publication PMC9934407, “Comprehensive structural characterization of the human AAA+ disaggregase CLPB in the apo- and substrate-bound states reveals a unique mode of action driven by oligomerization” (PLOS Biology, 2023).

For series [1], the target named is human CLPB isoform 1 (human). In words: negative staining electron microscopy + cryo-EM 2D classification; CLPB^isoform1-AMPPNP dataset, protein purified from E. coli.
Series [2] has as its target human CLPB NBD-only variant with E425Q (human) (UniProt Q9H078). The series is described as follows: cryo-EM structure; NBD^E425Q-ATP dataset; self-assembly into hexamer, heptamer and nonamer.
For series [3], the target named is human CLPB NBD-only variant (N-terminal ANK domain truncated) (human) (UniProt Q9H078). In words: cryo-EM 2D classification; NBD^WT-AMPPNP dataset.
Series [4] deals with the molecule itself. The series is described as follows: SEC; purification of CLPB, CLPB^Δ201–232 and CLPB^isoform1 complexes by size-exclusion chromatography (S7C–S7E Fig).
Series [5] concerns the molecule itself. In words: cryo-EM 2D classification; CLPB-ATPγS dataset, control without casein.
Series [6] concerns the molecule itself. In words: SEC + other: negative staining electron microscopy; proteins purified from E. coli; Superose 6 Increase 10/300 GL, 20 mM HEPES-KOH pH 6.8, 300 mM KCl, 5 mM MgCl2; with or without AMPPNP; peak fraction seen by nsEM.
Series [7] deals with the molecule itself. In words: cryo-EM structure; CLPB^E425Q-ATP dataset; sample treated with ATP and about 1 mM BS3, 0.5 mM CHAPSO added; self-assembly of the mutant.

Where a chain is given by its changes, count along the chain named. Names and notes keep the numbering of the source. Values joined by “and” are separate entries in the source; they are usually repeats but may differ in a detail not shown here. Equal values may be shown once.

human CLPB isoform 1 (enzyme): the stoichiometry N in series [1] amounted to 14. Consider “human CLPB NBD-only variant with E425Q (from UniProt Q9H078-2 1-677) (domain or fragment)”, for which the stoichiometry N in series [2] was 6 and 7 and 9. As for “human CLPB NBD-only variant (N-terminal ANK domain truncated) (from UniProt Q9H078-2 1-677) (domain or fragment)”, the stoichiometry N in series [3] is 6 and 7.

B1: human CLPB (isoform 2) with the ANK insertion deleted (enzyme, UniProt Q9H078-2 127-677, looked up)
chain: YSKSPSNKDAALLEAARANNMQEVSRLLSEGADVNAKHRLGWTALMVAAINRNNSVVQVLLAAGADPNLGDDFSSFKGCTALHYAVLADDYRTVKELLDGGANPLQRNEMGHTPLDYAREGEVMKLLRTSEAKYQEKQRKREAEERRRFPLEQRLKEHIIGQESAIATVGAAIRRKENGWYDEEHPLVFLFLGSSGIGKTELAKQTAKYMHKDAKKGFIRLDMSEFQERHEVAKFIGSPPGYVGHEEGGQLTKKLKQCPNAVVLFDEVDKAHPDVLTIMLQLFDEGRLTDGKGKTIDCKDAIFIMTSNVASDEIAQHALQLRQEALEMSRNRIAENLGDVQISDKITISKNFKENVIRPILKAHFRRDEFLGRINEIVYFLPFCHSELIQLVNKELNFWAKRAKQRHNITLLWDREVADVLVDGYNVHYGARSIKHEVERRVVNQLAAAYEQDLLPGGCTLRITVEDSDKQLLKSPELPSPQAEKRLPKLRLEIIDKDSKTRRLDIRAPLHPEKVCNTI
notes: human CLPB isoform 2 (CLPB-N127) with the insertion between AM2 and AM3 completely deleted; source: E. coli, purified; not shown: His×6-SUMO, N-terminal, cleaved
B1: the binding result in series [4] was “binds”.

B2: human CLPB (isoform 2), construct CLPB-N127, wild type (enzyme, UniProt Q9H078-2 127-677, looked up)
chain: YSKSPSNKDAALLEAARANNMQEVSRLLSEGADVNAKHRLGWTALMVAAINRNNSVVQVLLAAGADPNLGDDFSSVYKTAKEQGIHSLEVLITREDDFNNRLNNRASFKGCTALHYAVLADDYRTVKELLDGGANPLQRNEMGHTPLDYAREGEVMKLLRTSEAKYQEKQRKREAEERRRFPLEQRLKEHIIGQESAIATVGAAIRRKENGWYDEEHPLVFLFLGSSGIGKTELAKQTAKYMHKDAKKGFIRLDMSEFQERHEVAKFIGSPPGYVGHEEGGQLTKKLKQCPNAVVLFDEVDKAHPDVLTIMLQLFDEGRLTDGKGKTIDCKDAIFIMTSNVASDEIAQHALQLRQEALEMSRNRIAENLGDVQISDKITISKNFKENVIRPILKAHFRRDEFLGRINEIVYFLPFCHSELIQLVNKELNFWAKRAKQRHNITLLWDREVADVLVDGYNVHYGARSIKHEVERRVVNQLAAAYEQDLLPGGCTLRITVEDSDKQLLKSPELPSPQAEKRLPKLRLEIIDKDSKTRRLDIRAPLHPEKVCNTI
notes: human CLPB, splicing isoform 2, starting from the PARL cleavage site (between C126 and Y127) to the C-terminus; Double-heptamer (tetradecamer) in the apo state; about 1 mM BS3 was added to the samples for cryo-EM; also called SKD3; WT CLPB; source: E. coli Transetta (DE3), purified (ammonium sulfate, Mono Q, TEV cleavage, Superose 6 SEC); not shown: His×6-SUMO, N-terminal, cleaved; copies: 14
In the case of B2, in series [5], the “stoichiometry N” value came out at 14.

B3: human CLPB (isoform 2) R178E (enzyme, UniProt Q9H078-2 127-677, looked up)
chain: B2 chain with R52E
notes: human CLPB isoform 2 (CLPB-N127) with R178E; also called CLPB^R178E; source: E. coli, purified; not shown: His×6-SUMO, N-terminal, cleaved
On to B3, for which the binding result in series [6] is “binds”.

B4: human CLPB (isoform 2, CLPB-N127) Walker B mutant E425Q (enzyme, UniProt Q9H078-2 127-677, looked up)
chain: B2 chain with E299Q
notes: human CLPB isoform 2 from the PARL cleavage site (Y127) to the C-terminus, with E425Q; Double-hexamer (dodecamer) with a co-purified endogenous peptide in the central channel; also called CLPB^E425Q; source: E. coli, purified as the wild type; not shown: His×6-SUMO, N-terminal, cleaved; copies: 12
In the case of B4, the “stoichiometry N” value in series [7] is 12.

B5: human CLPB (isoform 2) R227E (enzyme, UniProt Q9H078-2 127-677, looked up)
chain: B2 chain with R101E
notes: human CLPB isoform 2 (CLPB-N127) with R227E; also called CLPB^R227E; source: E. coli, purified; not shown: His×6-SUMO, N-terminal, cleaved
For the molecule B5, in series [6], the binding result is “binds”.
